IntAct's records for PubMed 18974936

B1: Heavy metal-associated isoprenylated plant protein 26 (Arabidopsis thaliana (Mouse-ear cress)), Q9SZN7 (parent)
chain: MGVLDHVSEMFDCSHGHKIKKRKQLQTVEIKVKMDCEGCERKVRRSVEGMKGVSSVTLEPKAHKVTVVGYVDPNKVVARMSHRTGKKVELWPYVPYDVVAHPYAAGVYDKKAPSGYVRRVDDPGVSQLARASSTEVRYTTAFSDENPAACVVM
partner: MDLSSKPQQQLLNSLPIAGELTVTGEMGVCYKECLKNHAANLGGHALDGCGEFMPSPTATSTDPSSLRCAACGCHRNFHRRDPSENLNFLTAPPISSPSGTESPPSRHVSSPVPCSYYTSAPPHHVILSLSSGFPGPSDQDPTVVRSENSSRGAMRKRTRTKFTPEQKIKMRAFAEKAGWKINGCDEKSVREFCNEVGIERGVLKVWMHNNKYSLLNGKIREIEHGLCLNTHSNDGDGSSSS

Variants of: B1
Conditions: with zhd11_arath ZHD11, Q9SEZ1

Row | Variant | effect of a mutation on the interaction
1 | C36G;C39G | disrupting interaction
